In assay [1] the target is two chain urokinase-type plasminogen activator (uPA). In words: SDS-PAGE of the protease-serpin complex.
For assay [2], the target named is human urokinase-type plasminogen activator receptor (uPAR) expressed in mouse LB6 clone 19 cells (human) (UniProt Q03405). In words: radioligand binding.
Sequence of UniProt Q03405 (Q03405 23-305): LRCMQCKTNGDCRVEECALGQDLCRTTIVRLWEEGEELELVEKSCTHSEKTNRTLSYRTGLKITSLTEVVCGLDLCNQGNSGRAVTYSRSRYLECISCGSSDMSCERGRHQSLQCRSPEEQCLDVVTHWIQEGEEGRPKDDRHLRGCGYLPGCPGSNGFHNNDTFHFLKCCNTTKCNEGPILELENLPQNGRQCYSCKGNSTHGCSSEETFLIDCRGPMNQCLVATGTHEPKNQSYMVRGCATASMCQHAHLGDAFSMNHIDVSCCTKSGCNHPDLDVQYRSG

In the case of “plasminogen activator inhibitor type-1 (PAI-1), recombinant active (from UniProt P05121 24-402) (natural protein)”, the percent of uPA converted to the complex form in assay [1] was more than 90%. As for “uPA-PAI-1 complex (urokinase with plasminogen activator inhibitor type-1) (from UniProt P05121 24-402)”, in assay [2], the bound radioactivity at 4C (with cycloheximide) is 19.4 fmol/well and the bound radioactivity at 4C (without cycloheximide) was determined as 18.7 fmol/well.
